Assay [1] addresses TOP (recombinant human thimet oligopeptidase, R&D systems, Ref 3439-ZN) (human, UniProt P52888 1-689, limits assumed). In words: cell-based or functional assay.
For assay [2], the target named is CD10 (recombinant human neprilysin, R&D systems, Ref 1182-ZN) (human, UniProt P08473 53-750). In words: cell-based or functional assay.

From patent US20160058880A1 (LIFE SCIENCES RESEARCH PARTNERS VZW, published 2016) come the findings set out here.

Numbered stars: 1 amine (or outer) side, 2 acyl side, 3 side chain; on linkers, the order of the positions; unused ones are H or OH. Square brackets hold non-standard residues; d marks the D form. * marks the point of attachment. Doxorubicin(3'-N) = COc1cccc2c1C(=O)c1c(O)c3c(c(O)c1C2=O)C[C@@](O)(C(=O)CO)C[C@@H]3O[C@H]1C[C@H](N*)[C@H](O)[C@H](C)O1; Phosphonoacetyl = O=C(CP(=O)(O)O)*; Suc = O=C(CCC(=O)[*:2])[*:1]; βAla = NCCC(=O)O Some results are limits rather than exact numbers.

CD10 (recombinant human neprilysin, R&D systems, Ref 1182-ZN), sequence (P08473 53-750 limits assumed): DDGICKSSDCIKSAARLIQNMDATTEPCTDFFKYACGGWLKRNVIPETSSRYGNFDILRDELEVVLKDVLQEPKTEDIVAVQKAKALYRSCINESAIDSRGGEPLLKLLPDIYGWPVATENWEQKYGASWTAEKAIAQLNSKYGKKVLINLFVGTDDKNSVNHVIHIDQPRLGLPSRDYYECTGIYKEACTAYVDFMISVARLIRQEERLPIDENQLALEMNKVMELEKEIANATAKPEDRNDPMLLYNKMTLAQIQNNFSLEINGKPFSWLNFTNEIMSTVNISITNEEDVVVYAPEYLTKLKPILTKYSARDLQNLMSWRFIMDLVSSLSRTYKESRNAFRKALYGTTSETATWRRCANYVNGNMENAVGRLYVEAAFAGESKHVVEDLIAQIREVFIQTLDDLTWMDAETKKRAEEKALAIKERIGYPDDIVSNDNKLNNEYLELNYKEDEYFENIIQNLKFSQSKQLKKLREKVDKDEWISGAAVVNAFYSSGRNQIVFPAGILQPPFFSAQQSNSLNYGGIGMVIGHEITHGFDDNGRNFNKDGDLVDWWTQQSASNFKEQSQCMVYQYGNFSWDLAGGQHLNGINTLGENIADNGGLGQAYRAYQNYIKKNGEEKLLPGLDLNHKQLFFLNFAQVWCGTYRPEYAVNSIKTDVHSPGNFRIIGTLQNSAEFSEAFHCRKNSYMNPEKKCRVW
TOP (recombinant human thimet oligopeptidase, R&D systems, Ref 3439-ZN), sequence (P52888 whole entry): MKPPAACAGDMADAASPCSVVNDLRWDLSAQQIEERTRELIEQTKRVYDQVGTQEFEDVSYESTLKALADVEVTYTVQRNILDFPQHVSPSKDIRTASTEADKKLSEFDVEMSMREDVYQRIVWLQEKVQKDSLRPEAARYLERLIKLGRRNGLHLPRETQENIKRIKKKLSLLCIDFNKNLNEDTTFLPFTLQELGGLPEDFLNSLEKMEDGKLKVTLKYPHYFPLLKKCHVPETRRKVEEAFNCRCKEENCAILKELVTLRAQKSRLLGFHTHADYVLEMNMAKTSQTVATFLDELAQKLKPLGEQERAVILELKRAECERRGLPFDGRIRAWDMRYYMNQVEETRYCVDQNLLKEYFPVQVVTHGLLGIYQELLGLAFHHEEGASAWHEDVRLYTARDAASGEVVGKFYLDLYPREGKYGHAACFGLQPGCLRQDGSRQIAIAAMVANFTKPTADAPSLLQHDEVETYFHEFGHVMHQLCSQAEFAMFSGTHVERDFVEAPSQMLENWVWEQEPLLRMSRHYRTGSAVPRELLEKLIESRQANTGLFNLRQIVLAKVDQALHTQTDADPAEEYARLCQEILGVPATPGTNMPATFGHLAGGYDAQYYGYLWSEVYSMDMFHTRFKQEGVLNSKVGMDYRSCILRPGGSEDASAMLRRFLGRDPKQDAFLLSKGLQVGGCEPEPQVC

With Suc-[βAla]LPF-doxorubicin [Succinyl-βALPF-doxorubicin], the “% Metabolites released after 3 h with TOP 5 nM” value in assay [1] turned out to be 0%.

B1: PhAc-DLGP-doxorubicin (peptide)
peptide: Phosphonoacetyl-DLGP-{Doxorubicin(3'-N)}
SMILES: COc1cccc2c1C(=O)c1c(O)c3c(c(O)c1C2=O)C[C@@](O)(C(=O)CO)C[C@@H]3O[C@H]1C[C@H](NC(=O)[C@@H]2CCCN2C(=O)CNC(=O)[C@H](CC(C)C)NC(=O)[C@H](CC(=O)O)NC(=O)CP(=O)(O)O)[C@H](O)[C@H](C)O1
For B1, the “% Metabolites released after 3 h with TOP 5 nM” value in assay [1] is 0%. The “% Metabolites released after 3 h with CD10 10 nM” value in assay [2] came to 0%.

B2: PhAc-ALPF-doxorubicin (peptide)
peptide: Phosphonoacetyl-ALPF-{Doxorubicin(3'-N)}
SMILES: COc1cccc2c1C(=O)c1c(O)c3c(c(O)c1C2=O)C[C@@](O)(C(=O)CO)C[C@@H]3O[C@H]1C[C@H](NC(=O)[C@H](Cc2ccccc2)NC(=O)[C@@H]2CCCN2C(=O)[C@H](CC(C)C)NC(=O)[C@H](C)NC(=O)CP(=O)(O)O)[C@H](O)[C@H](C)O1
As for B2, the “% Metabolites released after 3 h with CD10 10 nM” value in assay [2] was determined as 0%.

B3: PhAc-ALGP-doxorubicin (peptide)
peptide: Phosphonoacetyl-ALGP-{Doxorubicin(3'-N)}
SMILES: COc1cccc2c1C(=O)c1c(O)c3c(c(O)c1C2=O)C[C@@](O)(C(=O)CO)C[C@@H]3O[C@H]1C[C@H](NC(=O)[C@@H]2CCCN2C(=O)CNC(=O)[C@H](CC(C)C)NC(=O)[C@H](C)NC(=O)CP(=O)(O)O)[C@H](O)[C@H](C)O1
With B3, the “% Metabolites released after 3 h with TOP 5 nM (GP-Dox)” value (“% Metabolites released … (GP-Dox)” below) in assay [1] worked out at 72%.

B4: PhAc-TSGP-doxorubicin (peptide)
peptide: Phosphonoacetyl-TSGP-{Doxorubicin(3'-N)}
SMILES: COc1cccc2c1C(=O)c1c(O)c3c(c(O)c1C2=O)C[C@@](O)(C(=O)CO)C[C@@H]3O[C@H]1C[C@H](NC(=O)[C@@H]2CCCN2C(=O)CNC(=O)[C@H](CO)NC(=O)[C@@H](NC(=O)CP(=O)(O)O)[C@@H](C)O)[C@H](O)[C@H](C)O1
With B4, the “% Metabolites released … (GP-Dox)” value in assay [1] came out at 38%. Further, the “% Metabolites released after 3 h with CD10 10 nM” value in assay [2] stood at 0%.

B5: PhAc-AIGP-doxorubicin (peptide)
peptide: Phosphonoacetyl-AIGP-{Doxorubicin(3'-N)}
SMILES: CC[C@H](C)[C@H](NC(=O)[C@H](C)NC(=O)CP(=O)(O)O)C(=O)NCC(=O)N1CCC[C@H]1C(=O)N[C@H]1C[C@H](O[C@H]2C[C@](O)(C(=O)CO)Cc3c(O)c4c(c(O)c32)C(=O)c2c(OC)cccc2C4=O)O[C@@H](C)[C@H]1O
For B5, the “% Metabolites released … (GP-Dox)” value in assay [1] is below 5%.

B6: PhAc-KLGP-doxorubicin (peptide)
peptide: Phosphonoacetyl-KLGP-{Doxorubicin(3'-N)}
SMILES: COc1cccc2c1C(=O)c1c(O)c3c(c(O)c1C2=O)C[C@@](O)(C(=O)CO)C[C@@H]3O[C@H]1C[C@H](NC(=O)[C@@H]2CCCN2C(=O)CNC(=O)[C@H](CC(C)C)NC(=O)[C@H](CCCCN)NC(=O)CP(=O)(O)O)[C@H](O)[C@H](C)O1
Consider B6, for which the “% Metabolites released … (GP-Dox)” value in assay [1] worked out at 31%.

B7: PhAc-GPGP-doxorubicin (peptide)
peptide: Phosphonoacetyl-GPGP-{Doxorubicin(3'-N)}
SMILES: COc1cccc2c1C(=O)c1c(O)c3c(c(O)c1C2=O)C[C@@](O)(C(=O)CO)C[C@@H]3O[C@H]1C[C@H](NC(=O)[C@@H]2CCCN2C(=O)CNC(=O)[C@@H]2CCCN2C(=O)CNC(=O)CP(=O)(O)O)[C@H](O)[C@H](C)O1
With B7, the “% Metabolites released after 3 h with TOP 5 nM” value in assay [1] amounted to 0%. In addition, the “% Metabolites released after 3 h with CD10 10 nM” value in assay [2] was 0%.
